Measured values taken from PMC8856733.

Experiments:
Experiment in all cases: SEC
[1] = biological target: human glycyl-tRNA synthetase (GlyRS) G240R, CMT mutant (human)
[2] = biological target: human glycyl-tRNA synthetase (GlyRS) C157R, CMT mutant (human)
[3] = biological target: human glycyl-tRNA synthetase (GlyRS) E279D, CMT mutant (human)
[4] = biological target: human glycyl-tRNA synthetase (GlyRS), wild type (human)
[5] = biological target: human glycyl-tRNA synthetase (GlyRS) G526R, CMT mutant (human)
[6] = biological target: human glycyl-tRNA synthetase (GlyRS) L129P, CMT mutant (human)
[7] = biological target: human glycyl-tRNA synthetase (GlyRS) E71G, CMT mutant (human)

human glycyl-tRNA synthetase (GlyRS) G240R, CMT mutant (enzyme)
stoichiometry N [1]: 2

human glycyl-tRNA synthetase (GlyRS) C157R, CMT mutant (enzyme)
stoichiometry N [2]: 2

human glycyl-tRNA synthetase (GlyRS) E279D, CMT mutant (enzyme)
stoichiometry N [3]: 2

human glycyl-tRNA synthetase (GlyRS), wild type (enzyme)
stoichiometry N [4]: 2

human glycyl-tRNA synthetase (GlyRS) G526R, CMT mutant (enzyme)
stoichiometry N [5]: 2

human glycyl-tRNA synthetase (GlyRS) L129P, CMT mutant (enzyme)
stoichiometry N [6]: 2

human glycyl-tRNA synthetase (GlyRS) E71G, CMT mutant (enzyme)
stoichiometry N [7]: 2
